The labels stand for the following.
B1: CPEB3 Ribozyme (parent)
chain: GGGGGCCACAGCAGAAGCGUUCACGUCGCGGCCCCUGUCAGAUUCUGGUGAAUCUGCGAAUUCUGCUGU

Variants of B1 are the subject of the series. Description: self-cleavage, relative activity (ratio to wild type); higher = more cleavage; co-transcriptional.
As for C33G A52C, the self-cleavage came to 0.461. In the case of C33G A42U it was 0.556; in that of C32U C66U, 1; in that of C32U C66G, 0.923. Next, C32U C66A: 0.893. In the case of C33G C57A, the self-cleavage worked out at 0.38.

In the case of C33G C57U, the self-cleavage came to 0.316. As for C33G C57G, the self-cleavage worked out at 0.259. Regarding C33A C57A, the self-cleavage amounted to 0.345. In the case of C33A C57G it was 0.263; in that of C33G U61A, 0.317; in that of C33G U61G, 0.193. For the variant C33G U61C, the self-cleavage worked out at 0.341. In the case of C33G G68A, the self-cleavage worked out at 0.922. In the case of C32A C33A it was 0.308; in that of C32A C33U, 0.231; in that of C32A G65A, 0.638.

As to C32G C35A, the self-cleavage turned out to be 0.143. In the case of C32G C35G it was 0.303; in that of C33G U55G, 0.38. In the case of C33G U55A it was 0.571; in that of C32U U43A, 0.933; in that of C32U U43G, 0.963. As for C32U U43C, the self-cleavage came out at 0.947. In the case of C32A G58A it was 0.693; in that of C32A G58C, 0.841. Next, C33A G58C: 0.837; C33A G58U: 0.881; C32A A59G: 0.61. In the case of C32A A59C it was 0.372; in that of C32U U69G, 1.03; in that of C32U U69C, 1.06. Take C32A G47C: the self-cleavage was found to be 0.869. On to C32A G47A, for which the self-cleavage stood at 0.877. In the case of C32A U69C, the self-cleavage stood at 1.03.

With C32G C66G, the self-cleavage is 0.227. Next, C33A G37U: 0.12; C33A G37A: 0.26; C33A A59C: 0.322. Next, C33A C54G: 0.301.

C33A C54A: the self-cleavage was 0.326. As to C33A C54U, the self-cleavage is 0.723.

C33G G47U: the self-cleavage is 0.682. With C33G G47A, the self-cleavage amounted to 0.663. As to C33G G47C, the self-cleavage was determined as 0.638.

In the case of C33G G48A, the self-cleavage was 0.648. Next, C33G G48U: 0.579. Regarding C33G G48C, the self-cleavage was determined as 0.629. On to C32U A59U, for which the self-cleavage came out at 0.785.

Take C32U A59G: the self-cleavage is 0.954. For the variant C32U A59C, the self-cleavage was 0.687. As to C32A U64G, the self-cleavage stood at 0.726.

Take C32A U64A: the self-cleavage was found to be 0.519. Regarding C32A U64C, the self-cleavage was 0.499.

As to C32U C45U, the self-cleavage is 1.01. In the case of C32U C45G it was 0.975; in that of C32U C45A, 0.983; in that of C32A U49A, 0.871. Take C32A U49C: the self-cleavage was determined as 0.704. Consider C32A G48U, for which the self-cleavage was 0.901. Take C32A G48A: the self-cleavage was found to be 0.875. Next, C32A G48C: 0.862. For C32U C57U, the self-cleavage came out at 0.327.

Turning to C32U C57G, the self-cleavage was 0.335. On to C33G G50C, for which the self-cleavage was found to be 0.661. In the case of C33G G50A it was 0.687; in that of C33G G50U, 0.578; in that of C32A G41A, 0.344.

For C32A G41U, the self-cleavage was found to be 0.362. As to C33A C34G, the self-cleavage was found to be 0.229. Consider C33A C34A, for which the self-cleavage came out at 0.331.

As to C33A U36A, the self-cleavage is 0.157. Turning to C33A U36C, the self-cleavage is 0.785. As to C33A U36G, the self-cleavage was 0.256.

As for C32G U61A, the self-cleavage was 0.292. In the case of C33A G56U it was 0.756; in that of C33A G56C, 0.488; in that of C33G C54U, 0.727. In the case of C33G C54G it was 0.338; in that of C32G, 0.584. Next, C32U: 0.993; C32U U64G: 1.01. Take C32G A60G: the self-cleavage came to 0.267. Next, C32A U43A: 0.345. As for C32A U43C, the self-cleavage came out at 0.441. Next, C33G C45A: 0.47; C33G C45G: 0.537; C33G C45U: 0.641. Next, C33A C45U: 0.799; C32A U53C: 0.455; C32A U53G: 0.419. Next, C33G A59C: 0.326. Regarding C32U U44A, the self-cleavage stood at 0.948. Next, C32U G58A: 0.983; C32G U67G: 0.584; C32G U67A: 0.525.

As for C32G U67C, the self-cleavage amounted to 0.536.

With C32U U46G, the self-cleavage worked out at 0.951.

With C32U U46C, the self-cleavage was 1. Turning to C32U U46A, the self-cleavage was 1. In the case of C33G U62A it was 0.391; in that of C33A G50C, 0.92; in that of C33A G50A, 0.938. Next, C32U G65A: 0.988. Turning to C32U G65C, the self-cleavage was found to be 0.778. Take C33A U38G: the self-cleavage stood at 0.212. On to C32A C63G, for which the self-cleavage stood at 0.344. Next, C32A C63U: 0.772; C32A U36A: 0.275; C32A U36C: 0.593. For C33A U43G, the self-cleavage stood at 0.361. C33A U43C: the self-cleavage turned out to be 0.461. As to C32G G68C, the self-cleavage turned out to be 0.768. In the case of C32G G68A it was 0.808; in that of C32G U64A, 0.235. With C32G U64G, the self-cleavage is 0.253. For the variant C33A A40G, the self-cleavage came to 0.748. As to C32U A51C, the self-cleavage stood at 0.964. For C32A C35A, the self-cleavage worked out at 0.26. As to C32U C54U, the self-cleavage was 0.966. In the case of C32U C54A it was 0.861. In the case of C32U C34A it was 0.541; in that of C33G A51U, 0.415; in that of C33G A51G, 0.739. Next, C32G A59G: 0.586; C32G A59U: 0.206; C33A U69G: 0.988. As for C33A U69C, the self-cleavage turned out to be 1.04. In the case of C32A U67A it was 0.956; in that of C32A U67C, 0.882; in that of C32A U67G, 0.936.

As to C32G U69C, the self-cleavage was 0.839. In the case of C32U A60G it was 0.906.

Regarding C32G G48A, the self-cleavage was 0.62. Next, C32G G48U: 0.562; C32A U55G: 0.451. With C32A U55A, the self-cleavage worked out at 0.622.

As for C32A U55C, the self-cleavage is 0.393. Next, C33G U53A: 0.395; C33G U53G: 0.32. With C32G U46G, the self-cleavage was found to be 0.522. In the case of C32G U46A it was 0.492; in that of C32G G50C, 0.299. As for C32G G50U, the self-cleavage came out at 0.503. Consider C32G C45G, for which the self-cleavage was 0.434. As to C32G A52C, the self-cleavage came out at 0.435. As to C32G G65C, the self-cleavage was 0.224. As to C32G G65A, the self-cleavage was found to be 0.288. Regarding C33G G37U, the self-cleavage came to 0.245.

C33G G37A: the self-cleavage came to 0.299.

Take C32A C45G: the self-cleavage turned out to be 0.667. Next, C32G A40G: 0.442. Next, C32G A40U: 0.281; C32G A40C: 0.308.

Turning to C32G A51U, the self-cleavage was determined as 0.419. With C32G A51C, the self-cleavage amounted to 0.353. In the case of C32A A40C it was 0.321; in that of C32A A40U, 0.376. In the case of C32A A40G, the self-cleavage was 0.711. Regarding C32U G47U, the self-cleavage was 1.01. In the case of C32A A51G it was 0.521; in that of C32G U43A, 0.238; in that of C32G U43G, 0.331. Next, C32G U43C: 0.364. In the case of C32G U62A it was 0.26.

Consider C32G U62C, for which the self-cleavage is 0.306. Consider C32G U62G, for which the self-cleavage is 0.271.

Source of the values: the RNAGym collection of RNA variant scans (doi:10.7554/elife.80360).
